38 variants from the RNAGym collection of RNA variant scans (doi:10.7554/elife.80360) can be followed below.

B1: Hairpin Ribozyme (parent)
chain: GUCCUCUUUCACGUGCGCGUGAAAGAGAGAAGUGAACCAGAGAAACACACGUUGUGGUAUAUUACCUGGUA

In this series the parent is B1. Nature of the series: self-cleavage, relative activity (ratio to wild type); higher = more cleavage; co-transcriptional.
Take GUCCUCUUUCACGGGCGCGUGAAAGAGAGAAGUGAACCAGAGAAACACACGUUGUGGUAUAUUACGUGGUA [U14G C66G]: the self-cleavage stood at 0.173.

Regarding GUCCUCUUUCACGGGCGCGUGAAAGAGAGAAGUGAACCAGAGAAACAUACGUUGUGGUAUAUUACCUGGUA [U14G C48U], the self-cleavage stood at 0.0482.

On to GUCCUCUUUCACGGGCGCGUGAAAGAGAGAAGUGAACCGGAGAAACACACGUUGUGGUAUAUUACCUGGUA [U14G A39G], for which the self-cleavage is 0.227.

GUCCUCUUUCACGGGCGCGUGAAAGAGAGAAGUGAACCAGAGAAACCCACGUUGUGGUAUAUUACCUGGUA [U14G A47C]: the self-cleavage was determined as 0.218.

Turning to GUCCUCUUUCACGGGCGCGUGAAAGAGAGAAGUGAACAAGAGAAACACACGUUGUGGUAUAUUACCUGGUA [U14G C38A], the self-cleavage is 0.17.

Regarding GUCCUCUUUCACGGGCGCGUGAAAGAGAGAAGUGAACUAGAGAAACACACGUUGUGGUAUAUUACCUGGUA [U14G C38U], the self-cleavage was 0.345.

For the variant GUCCUCUUUCACGCGCGCGUGAAAGAGAGAAGUGAACCAGAGAAACACACGUUGUGGUAUAUCACCUGGUA [U14C U63C], the self-cleavage is 0.392.

GUCCUCUUUCACGCGCGCGUGAAAGAGAGAAGUGAACCAGAGAAACACACGUUGUGGUAUAUAACCUGGUA [U14C U63A]: the self-cleavage turned out to be 0.

In the case of GUCCUCUUUCACGGGCGCGUGAAAGAGAGAGGUGAACCAGAGAAACACACGUUGUGGUAUAUUACCUGGUA [U14G A31G], the self-cleavage is 0.693.

Consider GUCCUCUUUCACGCGCGCGCGAAAGAGAGAAGUGAACCAGAGAAACACACGUUGUGGUAUAUUACCUGGUA [U14C U20C], for which the self-cleavage came to 1.03.

On to GUCCUCUUUCACGCGCGCGGGAAAGAGAGAAGUGAACCAGAGAAACACACGUUGUGGUAUAUUACCUGGUA [U14C U20G], for which the self-cleavage stood at 1.09.

With GUCCUCUUUCACGCGCGCGAGAAAGAGAGAAGUGAACCAGAGAAACACACGUUGUGGUAUAUUACCUGGUA [U14C U20A], the self-cleavage was determined as 0.774.

As for GUCCUCUUUCACGGGCGCGUGAAAGAGAGAAGUGAAUCAGAGAAACACACGUUGUGGUAUAUUACCUGGUA [U14G C37U], the self-cleavage is 0.547.

Consider GUCCUCUUUCACGGGCGCGUGAAAGAGAGAAGUGAACCAGAGAGACACACGUUGUGGUAUAUUACCUGGUA [U14G A44G], for which the self-cleavage stood at 0.0802.

Consider GUCCUCUUUCACGGGCGCGUGAAAGAGAGAAGUGAACCAGAGACACACACGUUGUGGUAUAUUACCUGGUA [U14G A44C], for which the self-cleavage was determined as 0.218.

With GUCCUCUUUCACGGGCGCGUGAAAGAGAGAAGUGAACCAGAGCAACACACGUUGUGGUAUAUUACCUGGUA [U14G A43C], the self-cleavage is 0.0921.

Turning to GUCCUCUUUCACGCGCGCGUGAAAGAGAGAAGUGAACCAGAGAAACACACGUUGUGGCAUAUUACCUGGUA [U14C U58C], the self-cleavage amounted to 0.78.

Consider GUCCUCUUUCACGCGCGCGUGAAAGAGAGAAGUGAACCAGAGAAACACACGUUGUGGAAUAUUACCUGGUA [U14C U58A], for which the self-cleavage was found to be 0.763.

As to GUCCUCUUUCACGGGCGCGUGAAAGAGAGAAGUGAUCCAGAGAAACACACGUUGUGGUAUAUUACCUGGUA [U14G A36U], the self-cleavage stood at 0.311.

As to GUCCUCUUUCACGGGCGCGUGAAAGAGAGCAGUGAACCAGAGAAACACACGUUGUGGUAUAUUACCUGGUA [U14G A30C], the self-cleavage is 0.129.

For the variant GUCCUCUUUCACGCGCGCGUGAAAGAGAGAAGUGAACCAGAGAAACACACGUUGUGGUAUAUUACCUGUUA [U14C G69U], the self-cleavage stood at 0.3.

Regarding GUCCUCUUUCACGGGCGCGUGAAUGAGAGAAGUGAACCAGAGAAACACACGUUGUGGUAUAUUACCUGGUA [U14G A24U], the self-cleavage stood at 0.653.

GUCCUCUUUCACGGGCGCGUGAAAGAGAGAAGUGAACCAGAGAAACACACGUUGUGGUAUAUUACCUGGUC [U14G A71C]: the self-cleavage is 1.11.

As to GUCCUCUUUCACGGGCGCGUGAAAGAGAGAAGUGAACCAGAGAAACACACGUUGUGGUAUAUUACCUGGUG [U14G A71G], the self-cleavage was determined as 0.883.

For GUCCUCUUUCACGCGCGCGUGAAAGAGAGAAGUGAACCAGAGAAACACACGAUGUGGUAUAUUACCUGGUA [U14C U52A], the self-cleavage was 1.03.

For the variant GUCCUCUUUCACGCGCGCGUGAAAGAGAGAAGUGAACCAGAGAAACACACGGUGUGGUAUAUUACCUGGUA [U14C U52G], the self-cleavage is 0.512.

As to GUCCUCUUUCACGCGCGCGUGAAAGAGAGAAGUGAACCAGAGAAACACACGUUGCGGUAUAUUACCUGGUA [U14C U55C], the self-cleavage came to 0.483.

Take GUCCUCUUUCACGCGCGCGUGAAAGAGAGAAGUGAACCAGAGAAACACACGUUGAGGUAUAUUACCUGGUA [U14C U55A]: the self-cleavage amounted to 0.271.

In the case of GUCCUCUUUCACGCGCGCGUGAAAGAGAGAAGUGAACCAGAGAAACACACGUUGGGGUAUAUUACCUGGUA [U14C U55G], the self-cleavage amounted to 0.352.

Consider GUCCUCUUUCACGCGCGCGUGAAAGAGAGAAGUGAACCAGAGAAACACACGUUGUGGUAUAUUACCUGGAA [U14C U70A], for which the self-cleavage was 0.814.

Take GUCCUCUUUCACGCGCGCGUGAAAGAGAGAAGAGAACCAGAGAAACACACGUUGUGGUAUAUUACCUGGUA [U14C U33A]: the self-cleavage was found to be 0.0608.

GUCCUCUUUCACGGGCGCGUGAAAGAGAGAAGUGAACCAGAGAAACACACGUUGUGGUAUAUUUCCUGGUA [U14G A64U]: the self-cleavage was found to be 0.07.

GUCCUCUUUCACGGGCGCGUGAAAGAGAGAAGUGAACCAGCGAAACACACGUUGUGGUAUAUUACCUGGUA [U14G A41C]: the self-cleavage turned out to be 0.698.

As for GUCCUCUUUCACGGGCGCGUGAAAGAGAGAAGUGAACCAGAGAAACACACGUUGUGGUAUAUUAACUGGUA [U14G C65A], the self-cleavage came out at 1.05.

Regarding GUCCUCUUUCACGGGCGCGUGAAAGAGAGAAGUGAACCAGAGAACCACACGUUGUGGUAUAUUACCUGGUA [U14G A45C], the self-cleavage amounted to 0.243.

For the variant GUCCUCUUUCACGGGCGCGUGAAAGAGAGAAGUGAACCAGAGAAACACGCGUUGUGGUAUAUUACCUGGUA [U14G A49G], the self-cleavage amounted to 0.386.

On to GUCCUCUUUCACGGGAGCGUGAAAGAGAGAAGUGAACCAGAGAAACACACGUUGUGGUAUAUUACCUGGUA [U14G C16A], for which the self-cleavage amounted to 0.681.

Take GUCCUCUUUCACGCGCGCGUGAAAGAGAGAAGUGAACCAGAGAAACACACGUUGUGGUAAAUUACCUGGUA [U14C U60A]: the self-cleavage was 0.795.
